Data as given in patent US20240345090A1, “EARLY DETECTION OF INNATE IMMUNE DYSFUNCTION AND TREATMENT OF CONDITIONS ASSOCIATED THEREWITH” (UNIVERSITY OF FLORIDA RESEARCH FOUNDATION, INCORPORATED, priority 2021, published 2024).

Tested on: CD14+ monocytes
Assay: Flow cytometry count of TH+ monocytes after in vitro treatment
Type: cell-based, human
Settings: healthy donor monocytes, 2 million per well, 4 hours; TPA 100 ng/ml, TNFα 17 ng/ml, IL6 17 ng/ml, XPro1595 50 ng/ml; n=3 per group
Protocol: Monocytes were isolated from total PBMCs prepared as described above^51 using negative selection (Biolegend, 480048) per manufacturer's instructions. Total PBMCs were Fc-blocked to reduce nonspecific binding, followed by incubations with biotin-conjugated antibody cocktail containing antibodies against all subsets except CD14 (negative selection), followed by incubation with magnetic-Avidin beads, allowing all subsets other than CD14+ monocytes to be bound to the magnet. Monocyte purity/enrichment was routinely verified to confirm that the final cell population was greater than 95% pure CD14+ cells (FIG. S2). CD14+ monocytes were collected from the supernatant fraction, washed, counted and density adjusted such that 2 million CD14+ monocytes were seeded per well (FIG. 5A) and treated for 4 hours with vehicle, TPA (100 ng/ml, Biolegend, 755802)^7, TNFα (17 ng/mL, Biolegend, 570102)^61, XPro1595 (50 ng/ml), or IL6 (17 ng/mL) in an ultra-low-adherence 6-well plate (Corning, 3471) to prevent adherence. Suspended cells from each treatment group were aspirated and placed in a 15 ml conical tube, with any remaining adherent cells detached by incubation with 700 uL Accumax solution for 3 minutes (Innovative Cell Technologies, AM105) and added to suspended cells. […]

B1: TPA: tissue plasminogen activator, positive control for increased monocyte TH expression (Biolegend, 755802) (protein, UniProt P00750 36-562, looked up)
Tissue-type plasminogen …: SYQVICRDEKTQMIYQQHQSWLRPVLRSNRVEYCWCNSGRAQCHSVPVKSCSEPRCFNGGTCQQALYFSDFVCQCPEGFAGKCCEIDTRATCYEDQGISYRGTWSTAESGAECTNWNSSALAQKPYSGRRPDAIRLGLGNHNYCRNPDRDSKPWCYVFKAGKYSSEFCSTPACSEGNSDCYFGNGSAYRGTHSLTESGASCLPWNSMILIGKVYTAQNPSAQALGLGKHNYCRNPDGDAKPWCHVLKNRRLTWEYCDVPSCSTCGLRQYSQPQFRIKGGLFADIASHPWQAAIFAKHRRSPGERFLCGGILISSCWILSAAHCFQERFPPHHLTVILGRTYRVVPGEEEQKFEVEKYIVHKEFDDDTYDNDIALLQLKSDSSRCAQESSVVRTVCLPPADLQLPDWTECELSGYGKHEALSPFYSERLKEAHVRLYPSSRCTSQHLLNRTVTDNMLCAGDTRSGGPQANLHDACQGDSGGPLVCLNDGRMTLVGIISWGLGCGQKDVPGVYTKVTNYLDWIRDNMRP
For B1, which “number of TH+ monocytes, fold change relative to vehicle” value is on record?
The value was “significant increases in TH-expressing monocytes relative to vehicle”.
